Measurements taken from publication PMC4753521, “Real-time and simultaneous monitoring of the phosphorylation and enhanced interaction of p53 and XPC acidic domains with the TFIIH p62 subunit” (Oncogenesis, 2015).
Non-standard residues stand in square brackets, D forms with d. No end group written: not given here. pT = C[C@@H](OP(=O)(O)O)[C@H](N)C(=O)O; pS = N[C@@H](COP(=O)(O)O)C(=O)O

B1: Ser129-phosphorylated peptide of human XPC (residues 124–142) (peptide, UniProt Q01831 124-142, looked up)
peptide: EEEEE[pS]ENDWEEVEELSEP
notes: XPC, human, residues 124-142; also called Ser129-phosphorylated XPC peptide; source: synthetic peptide, bought: Sigma Genosys Japan
B2: Thr55-phosphorylated peptide of human p53-TAD2 (residues 41–62) (peptide, UniProt P04637 41-62, looked up)
peptide: DDLMLSPDDIEQWF[pT]EDPGPDE
notes: p53 TAD2, human, residues 41-62; also called Thr55-phosphorylated p53-TAD2; TP; source: synthetic peptide, bought: Sigma Genosys Japan
B3: Ser46, Thr55 double-phosphorylated peptide of human p53-TAD2 (residues 41–62) (peptide, UniProt P04637 41-62, looked up)
peptide: DDLML[pS]PDDIEQWF[pT]EDPGPDE
notes: p53 TAD2, human, residues 41-62; also called Ser46, Thr55 double-phosphorylated p53-TAD2; source: synthetic peptide, bought: Sigma Genosys Japan
B4: Ser46-phosphorylated peptide of human p53-TAD2 (residues 41–62) (peptide, UniProt P04637 41-62, looked up)
peptide: DDLML[pS]PDDIEQWFTEDPGPDE
notes: p53 TAD2, human, residues 41-62; also called Ser46-phosphorylated p53-TAD2; source: synthetic peptide, bought: Sigma Genosys Japan
B5: human XPC-AF (residues 109–156) phosphorylated at Ser129 by CK2 (domain or fragment, UniProt Q01831 109-156, looked up)
chain: AHHLKRGATMNEDSNEEEEE[pS]ENDWEEVEELSEPVLGDVRESTAFSRS
modifications: also: 13C/15N-labeled
notes: acidic fragment of the nucleotide excision repair factor XPC, human, residues 109-156; 13C/15N-labelled; in the complex with p62-PH phosphorylation of Ser129 reached ~80% at ~2 h; also called Ser129-phosphorylated XPC-AF; source: E. coli Rosetta 2 (DE3) pLysS, purified (Ni-NTA, thrombin digestion, Superdex30); phosphorylated by CK2 in the NMR tube
B6: unphosphorylated peptide of human XPC (residues 124–142) (peptide, UniProt Q01831 124-142, looked up)
peptide: EEEEESENDWEEVEELSEP
notes: XPC, human, residues 124-142; also called unphosphorylated XPC peptide; source: synthetic peptide, bought: Sigma Genosys Japan

Experiments:
Settings in all cases: both partners purified
[1] = target: T1, human TFIIH p62-PH domain (residues 1–108) (human, UniProt P32780 1-108); experiment: ITC; VP-ITC; 100 μM XPC peptide in the syringe (25 × 20 μl injections), 2 ml of 10 μM p62-PH in the cell; 20 °C; 20 mM potassium phosphate (pH 6.8)
T1 construct: PH domain of the p62 subunit of the general transcription factor TFIIH, human, residues 1-108; Used 15N- or 13C/15N-labelled in the NMR experiments, unlabelled when added to XPC-AF; also called pleckstrin homology (PH) domain of the p62 subunit of TFIIH
T1 sequence (looked up): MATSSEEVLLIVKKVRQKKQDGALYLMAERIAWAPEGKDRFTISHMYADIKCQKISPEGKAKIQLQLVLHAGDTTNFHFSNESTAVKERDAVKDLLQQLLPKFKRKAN

[2] = target: T1, human TFIIH p62-PH domain (residues …); experiment: NMR titration; 1H,15N HSQC perturbation: p53-TAD2 peptides added to 15N-labeled p62-PH at a molar ratio of 1:2.5 (p62:p53); 20 mM potassium phosphate (pH 6.8), 1 mM ATP, 10 mM MgCl2, 5 mM deuterated DTT, 10% D2O; 32 °C
[3] = target: T1, human TFIIH p62-PH domain (residues …); experiment: NMR titration; real-time NMR of 150 μl of 50 μM complex of labeled XPC-AF and labeled p62-PH; 2.5 μg CK2 added; 20 mM potassium phosphate (pH 6.8), 1 mM ATP, 10 mM MgCl2, 5 mM deuterated DTT, 10% D2O

Binder	Kd [1]	binding result [2]	further results
B1	41 nM		
B2		binds	
B3		binds	
B4		binds	
B5			binding result [3]: binds
B6	132 nM		
